Results: article PMC10287930, “RecF protein targeting to post-replication (daughter strand) gaps II: RecF interaction with replisomes” (Nucleic Acids Research, 2023)

B1: RecR (Gal4 fusion for yeast two-hybrid) (natural protein, E. coli, UniProt P0A7H6 1-201, looked up)
chain: MQTSPLLTQLMEALRCLPGVGPKSAQRMAFTLLQRDRSGGMRLAQALTRAMSEIGHCADCRTFTEQEVCNICSNPRRQENGQICVVESPADIYAIEQTGQFSGRYFVLMGHLSPLDGIGPDDIGLDRLEQRLAEEKITEVILATNPTVEGEATANYIAELCAQYDVEASRIAHGVPVGGELEMVDGTTLSHSLAGRHKIRF
notes: RecR, E. coli; open reading frame (start to stop codons) of recR; Stood as AD fusion and as BD fusion in turn; also called pGAD-RecR; pGBD-RecR; source: yeast two-hybrid fusion (yeast CFy7; pEAW1247 pGAD-RecR, pEAW1248 pGBD-RecR)
B2: RecF (Gal4 fusion for yeast two-hybrid) (natural protein, E. coli, UniProt P0A7H0 1-357, looked up)
chain: MSLTRLLIRDFRNIETADLALSPGFNFLVGANGSGKTSVLEAIYTLGHGRAFRSLQIGRVIRHEQEAFVLHGRLQGEERETAIGLTKDKQGDSKVRIDGTDGHKVAELAHLMPMQLITPEGFTLLNGGPKYRRAFLDWGCFHNEPGFFTAWSNLKRLLKQRNAALRQVTRYEQLRPWDKELIPLAEQISTWRAEYSAGIAADMADTCKQFLPEFSLTFSFQRGWEKETEYAEVLERNFERDRQLTYTAHGPHKADLRIRADGAPVEDTLSRGQLKLLMCALRLAQGEFLTRESGRRCLYLIDDFASELDDERRGLLASRLKATQSQVFVSAISAEHVIDMSDENSKMFTVEKGKITD
notes: RecF, E. coli; open reading frame (start to stop codons) of recF cloned in frame into pGAD-C3 and pGBD-C3; Stood as AD fusion and as BD fusion in turn; one molecule for both; source: yeast two-hybrid fusion (yeast CFy7; pEAW1241 pGAD-RecF, pEAW1242 pGBD-RecF)
B3: RadD (Gal4 fusion for yeast two-hybrid) (natural protein, E. coli, UniProt P33919 1-586, looked up)
chain: MIFTLRPYQQEAVDATLNHFRRHKTPAVIVLPTGAGKSLVIAELARLARGRVLVLAHVKELVAQNHAKYQALGLEADIFAAGLKRKESHGKVVFGSVQSVARNLDAFQGEFSLLIVDECHRIGDDEESQYQQILTHLTKVNPHLRLLGLTATPFRLGKGWIYQFHYHGMVRGDEKALFRDCIYELPLRYMIKHGYLTPPERLDMPVVQYDFSRLQAQSNGLFSEADLNRELKKQQRITPHIISQIMEFAATRKGVMIFAATVEHAKEIVGLLPAEDAALITGDTPGAERDVLIENFKAQRFRYLVNVAVLTTGFDAPHVDLIAILRPTESVSLYQQIVGRGLRLAPGKTDCLILDYAGNPHDLYAPEVGTPKGKSDNVPVQVFCPACGFANTFWGKTTADGTLIEHFGRRCQGWFEDDDGHREQCDFRFRFKNCPQCNAENDIAARRCRECDTVLVDPDDMLKAALRLKDALVLRCSGMSLQHGHDEKGEWLKITYYDEDGADVSERFRLQTPAQRTAFEQLFIRPHTRTPGIPLRWITAADILAQQALLRHPDFVVARMKGQYWQVREKVFDYEGRFRLAHELRG
notes: RadD (YejH), E. coli; also called YejH; pGAD-YejH; source: yeast two-hybrid fusion (yeast CFy7)
B4: RecO (Gal4 fusion for yeast two-hybrid) (natural protein, E. coli, UniProt P0A7H3 1-242, looked up)
chain: MEGWQRAFVLHSRPWSETSLMLDVFTEESGRVRLVAKGARSKRSTLKGALQPFTPLLLRFGGRGEVKTLRSAEAVSLALPLSGITLYSGLYINELLSRVLEYETRFSELFFDYLHCIQSLAGVTGTPEPALRRFELALLGHLGYGVNFTHCAGSGEPVDDTMTYRYREEKGFIASVVIDNKTFTGRQLKALNAREFPDADTLRAAKRFTRMALKPYLGGKPLKSRELFRQFMPKRTVKTHYE
notes: RecO, E. coli; open reading frame (start to stop codons) of recO; also called pGAD-RecO; pGBD-RecO; source: yeast two-hybrid fusion (yeast CFy7; pEAW1258 pGAD-RecO, pEAW1259 pGBD-RecO)
B5: RecQ (Gal4 fusion for yeast two-hybrid) (natural protein)
chain: not shown
notes: RecQ helicase, E. coli; open reading frame (start to stop codons) of recQ; also called pGAD-RecQ; pGBD-RecQ; source: yeast two-hybrid fusion (yeast CFy7; pEAW1100 pGAD-RecQ, pEAW1105 pGBD-RecQ)
B6: TopB (Gal4 fusion for yeast two-hybrid) (natural protein, E. coli, UniProt P14294 1-653, looked up)
chain: MRLFIAEKPSLARAIADVLPKPHRKGDGFIECGNGQVVTWCIGHLLEQAQPDAYDSRYARWNLADLPIVPEKWQLQPRPSVTKQLNVIKRFLHEASEIVHAGDPDREGQLLVDEVLDYLQLAPEKRQQVQRCLINDLNPQAVERAIDRLRSNSEFVPLCVSALARARADWLYGINMTRAYTILGRNAGYQGVLSVGRVQTPVLGLVVRRDEEIENFVAKDFFEVKAHIVTPADERFTAIWQPSEACEPYQDEEGRLLHRPLAEHVVNRISGQPAIVTSYNDKRESESAPLPFSLSALQIEAAKRFGLSAQNVLDICQKLYETHKLITYPRSDCRYLPEEHFAGRHAVMNAISVHAPDLLPQPVVDPDIRNRCWDDKKVDAHHAIIPTARSSAINLTENEAKVYNLIARQYLMQFCPDAVFRKCVIELDIAKGKFVAKARFLAEAGWRTLLGSKERDEENDGTPLPVVAKGDELLCEKGEVVERQTQPPRHFTDATLLSAMTGIARFVQDKDLKKILRATDGLGTEATRAGIIELLFKRGFLTKKGRYIHSTDAGKALFHSLPEMATRPDMTAHWESVLTQISEKQCRYQDFMQPLVGTLYQLIDQAKRTPVRQFRGIVAPGSGGSADKKKAAPRKRSAKKSPPADEVGSGAIA
notes: TopB (DNA topoisomerase III), E. coli; open reading frame (start to stop codons) of topB; also called pGAD-TopB; pGBD-TopB; source: yeast two-hybrid fusion (yeast CFy7; pEAW1251 pGAD-TopB, pEAW1252 pGBD-TopB)

Assays:
Test in all cases: two-hybrid; yeast CFy7; RecF fused to Gal4 AD (pGAD-C3) or BD (pGBD-C3) and the partner to the other domain; β-galactosidase activity of freeze/thaw-broken cells in Z buffer; 4 or 5 biological replicates; negative controls (empty C3) 0.21 (AD_RecF) and 0.27 units (BD_RecF)
[1] = molecular target: B2; conditions: partners not purified
[2] = molecular target: B1; conditions: partners not purified
[3] = molecular target: T1, DnaN β-clamp (Gal4 fusion for yeast two-hybrid) (E. coli, UniProt P0A988 1-366); conditions: partners not purified
T1 construct: DnaN (β-clamp of DNA polymerase III), E. coli; open reading frame (start to stop codons) of dnaN; also called pGBD-DnaN; source: yeast two-hybrid fusion (yeast CFy7; pEAW1101 pGAD-DnaN, pEAW1104 pGBD-DnaN)
T1 sequence (P0A988 whole entry, the tested form may be a part): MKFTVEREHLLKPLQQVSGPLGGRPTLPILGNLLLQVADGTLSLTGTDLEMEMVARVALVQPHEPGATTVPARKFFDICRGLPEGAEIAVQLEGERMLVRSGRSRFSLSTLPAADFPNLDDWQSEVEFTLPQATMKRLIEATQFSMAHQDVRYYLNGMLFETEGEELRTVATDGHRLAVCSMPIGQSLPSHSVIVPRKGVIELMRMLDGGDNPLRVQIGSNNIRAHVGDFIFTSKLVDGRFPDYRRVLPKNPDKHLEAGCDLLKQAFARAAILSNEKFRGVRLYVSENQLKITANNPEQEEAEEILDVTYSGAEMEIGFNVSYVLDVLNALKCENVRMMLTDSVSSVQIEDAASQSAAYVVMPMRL

[4] = molecular target: the molecule itself

Row | β-galactosidase activity [1] [units] | Binder | further results
1 | 1.63 | B1 | 
2 |  | B2 | β-galactosidase activity [2]: 1.14 units; β-galactosidase activity [3]: 1.05 units; β-galactosidase activity [4]: 0.655 units
3 | ~0.5 | B3 | 
4 | ~0.5 | B4 | 
5 | ~0.5 | B5 | 
6 | ~0.5 | B6 | 
